Assay results: patent publication US20110172153A1
Ends that are not written are not given here.

Biological target: PTH receptor, R^0 and RG conformations (species not stated at the figure legends) (Homo sapiens (Human)) (UniProt Q03431)
Experiment: R0 binding affinity in vitro, table inset of FIG. 18; reference [E19],Mc-hPTH(1-34)OH

Binder AVAEIQLMHQRAKWLNSMERVEALRKKLQDVHNF-OH [[A^23,E^19],Mc-hPTH(1-34)OH] has a fold reduction of binding affinity for R^0 against [E^19 Mc]PTH(1-34) of 10 fold.
